Biological target: CD3 on T lymphocytes (human (endogenous in T lymphocytes from PBMCs)) (UniProt P07766)
Assay: FACS; dimer; binding to T lymphocytes

Chain of UniProt P07766 (P07766 23-207): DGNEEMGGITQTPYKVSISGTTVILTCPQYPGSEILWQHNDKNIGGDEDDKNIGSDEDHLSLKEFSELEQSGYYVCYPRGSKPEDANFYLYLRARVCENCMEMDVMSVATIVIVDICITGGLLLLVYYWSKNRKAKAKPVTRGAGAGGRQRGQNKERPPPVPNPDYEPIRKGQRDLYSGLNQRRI

EC50: 0.17 µg/mL
Substance: dimeric γδ_(ECTO)-αCD3 (AJ8 TCR, 3(G4S) linker), purified dimer fraction (from UniProt Q99603)

Reference: PMC9851377
